Several values for one entry are separate records, joined by “and”; a condition that tells them apart may be missing. Equal entries are not always repeated. Each block holds one binder with its values, some of them ahead of it.
Tests used:
[1] = biological target: T1, full length mouse DLL4 on overexpressing CHO or HEK293 cells (mouse, UniProt Q9JI71 27-686); experiment: FMAT, hNotch1/Fc on CHO-mDLL4, periplasmic extract
T1 construct: whole, on cells; also called CHO-mDLL4; mDLL4
Description: (§1) All calculations are based on the FL1 total signal which comprises the average of the fluorescence per well times the number of counts per well.

[2] = biological target: T1, full length mouse DLL4 on …; experiment: FACS on HEK293-mDLL4 cells
Experimental: In order to determine the cynomologus cross-reactivity of the VHHs, a FACS binding experiment is performed. Cynomolgus DII4 expressing HEK293 cells (transient or stable transfection) are used for a titration binding experiment of the VHHs. After a 30 minutes incubation on ice, all samples are washed and detection is performed by applying anti-c-myc˜Alexa647 (Santa Cruz Biotechnology, Santa Cruz, Calif., USA). Human and mouse DII4 overexpressing HEK293 cells are taken as reference. The mean MCF value is determined on the FACS Array and used for calculation of the EC₅₀ value (see FIG. 9).

[3] = biological target: T2, full length human DLL4 on overexpressing CHO or HEK293 cells (human, UniProt Q9NR61 27-685); experiment: FMAT, hNotch1/Fc on CHO-hDLL4, periplasmic extract
T2 construct: also called CHO-hDLL4; HEK293-hDII4
Description: as §1

[4] = biological target: full length mouse DLL4 on overexpressing CHO or HEK293 cells (mouse) (UniProt Q9JI71); experiment: FACS on CHO-mDLL4
[5] = biological target: recombinant human DLL4, C-terminally His-tagged extracellular domain (R&D Systems) (human) (UniProt Q9NR61); experiment: binding ELISA, coated rhDLL4
[6] = biological target: full length human DLL4 on overexpressing CHO or HEK293 cells (human) (UniProt Q9NR61); experiment: FMAT, hNotch1/Fc on CHO-hDLL4
[7] = biological target: cynomolgus DLL4 on overexpressing cells (cynomolgus (SEQ ID NO: 418 is the rhesus entry, stated 100% identical)); experiment: FACS on CHO-cDLL4
[8] = biological target: recombinant human DLL4, C-terminally His-tagged extracellular domain (R&D Systems) (human) (UniProt Q9NR61); experiment: competition ELISA, summary Table 21
[9] = biological target: recombinant human DLL4, C-terminally His-tagged extracellular domain (R&D Systems) (human) (UniProt Q9NR61); experiment: hDLL4/hNotch1-Fc competition ELISA
[10] = biological target: recombinant human DLL4, C-terminally His-tagged extracellular domain (R&D Systems) (human) (UniProt Q9NR61); experiment: SPR, rhDLL4
[11] = biological target: recombinant human DLL4, C-terminally His-tagged extracellular domain (R&D Systems) (human) (UniProt Q9NR61); experiment: SPR Biacore T100, hDLL4 on chip
[12] = biological target: full length human DLL4 on overexpressing CHO or HEK293 cells (human) (UniProt Q9NR61); experiment: cell-based or functional assay
[13] = biological target: recombinant human DLL4, C-terminally His-tagged extracellular domain (R&D Systems) (human) (UniProt Q9NR61); experiment: cell-based or functional assay
[14] = biological target: recombinant human DLL4, C-terminally His-tagged extracellular domain (R&D Systems) (human) (UniProt Q9NR61); experiment: affinity on hDLL4, summary Table 21 (method not named there)
[15] = biological target: recombinant human DLL4, C-terminally His-tagged extracellular domain (R&D Systems) (human) (UniProt Q9NR61); experiment: hDLL4/hNotch1-Fc competition AlphaScreen
[16] = biological target: recombinant human DLL4, C-terminally His-tagged extracellular domain (R&D Systems) (human) (UniProt Q9NR61); experiment: hDLL4/hNotch1-Fc competition ELISA; remark: listed apart in the source
[17] = biological target: full length mouse DLL4 on overexpressing CHO or HEK293 cells (mouse) (UniProt Q9JI71); experiment: FMAT competition, mDLL4 on cells, summary Table 21
[18] = biological target: full length mouse DLL4 on overexpressing CHO or HEK293 cells (mouse) (UniProt Q9JI71); experiment: FMAT, hNotch1/Fc on CHO-mDLL4
[19] = biological target: full length mouse DLL4 on overexpressing CHO or HEK293 cells (mouse) (UniProt Q9JI71); experiment: FMAT, hNotch1/Fc on CHO-mDLL4; remark: listed apart in the source
[20] = biological target: full length human DLL4 on overexpressing CHO or HEK293 cells (human) (UniProt Q9NR61); experiment: FACS on CHO-hDLL4
[21] = biological target: recombinant mouse DLL4, C-terminally His-tagged extracellular domain (R&D Systems) (mouse) (UniProt Q9JI71); experiment: binding ELISA, coated rmDLL4
[22] = biological target: full length human DLL4 on overexpressing CHO or HEK293 cells (human) (UniProt Q9NR61); experiment: FMAT competition, hDLL4 on cells, summary Table 21
[23] = biological target: full length human DLL4 on overexpressing CHO or HEK293 cells (human) (UniProt Q9NR61); experiment: FMAT, hNotch1/Fc on CHO-hDLL4; remark: listed apart in the source
[24] = biological target: T1, full length mouse DLL4 on …; experiment: FMAT competition: labelled hNotch1/Fc on CHO-mDLL4 cells
Description: as §1

[25] = biological target: T2, full length human DLL4 on …; experiment: FMAT competition: labelled hNotch1/Fc on CHO-hDLL4 cells
Description: as §1

full length human DLL4 on overexpressing CHO or HEK293 cells (human), sequence (Q9NR61 27-685 limits assumed): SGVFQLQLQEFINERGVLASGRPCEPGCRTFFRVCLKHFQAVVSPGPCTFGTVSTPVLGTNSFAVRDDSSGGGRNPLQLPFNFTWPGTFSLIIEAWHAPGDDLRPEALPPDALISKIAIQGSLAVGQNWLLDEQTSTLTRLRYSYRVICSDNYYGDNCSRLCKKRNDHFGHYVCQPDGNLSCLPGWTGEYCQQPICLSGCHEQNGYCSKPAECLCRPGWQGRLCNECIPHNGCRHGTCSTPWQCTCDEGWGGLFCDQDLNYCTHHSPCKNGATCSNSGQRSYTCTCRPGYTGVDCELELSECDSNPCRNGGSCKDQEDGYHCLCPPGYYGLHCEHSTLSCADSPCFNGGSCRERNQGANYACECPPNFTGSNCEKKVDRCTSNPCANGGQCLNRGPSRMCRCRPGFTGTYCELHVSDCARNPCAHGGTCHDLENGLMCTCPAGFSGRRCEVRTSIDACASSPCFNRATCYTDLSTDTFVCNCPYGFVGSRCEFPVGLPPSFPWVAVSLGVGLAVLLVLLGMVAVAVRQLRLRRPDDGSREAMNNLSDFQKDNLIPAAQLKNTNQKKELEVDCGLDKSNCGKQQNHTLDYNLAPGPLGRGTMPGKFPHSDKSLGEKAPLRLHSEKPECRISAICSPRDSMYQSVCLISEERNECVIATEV
T2 sequence (Q9NR61 27-685 limits assumed): as above
recombinant human DLL4, C-terminally His-tagged extracellular domain (R&D Systems) (human), sequence (Q9NR61 25-522): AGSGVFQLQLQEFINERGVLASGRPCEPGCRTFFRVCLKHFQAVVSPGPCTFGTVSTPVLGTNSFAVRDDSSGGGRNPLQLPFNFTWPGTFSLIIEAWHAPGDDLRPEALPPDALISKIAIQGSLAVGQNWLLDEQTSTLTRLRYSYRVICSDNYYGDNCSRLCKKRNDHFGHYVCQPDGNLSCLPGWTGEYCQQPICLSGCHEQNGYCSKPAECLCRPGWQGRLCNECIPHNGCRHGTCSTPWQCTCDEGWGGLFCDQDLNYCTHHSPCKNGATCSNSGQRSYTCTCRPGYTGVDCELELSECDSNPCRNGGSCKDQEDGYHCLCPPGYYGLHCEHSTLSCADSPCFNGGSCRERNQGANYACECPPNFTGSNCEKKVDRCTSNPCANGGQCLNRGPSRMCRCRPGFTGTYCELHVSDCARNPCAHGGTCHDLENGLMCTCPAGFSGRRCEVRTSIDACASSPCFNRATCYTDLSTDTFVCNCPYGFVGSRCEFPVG
full length mouse DLL4 on overexpressing CHO or HEK293 cells (mouse), sequence (Q9JI71 27-686): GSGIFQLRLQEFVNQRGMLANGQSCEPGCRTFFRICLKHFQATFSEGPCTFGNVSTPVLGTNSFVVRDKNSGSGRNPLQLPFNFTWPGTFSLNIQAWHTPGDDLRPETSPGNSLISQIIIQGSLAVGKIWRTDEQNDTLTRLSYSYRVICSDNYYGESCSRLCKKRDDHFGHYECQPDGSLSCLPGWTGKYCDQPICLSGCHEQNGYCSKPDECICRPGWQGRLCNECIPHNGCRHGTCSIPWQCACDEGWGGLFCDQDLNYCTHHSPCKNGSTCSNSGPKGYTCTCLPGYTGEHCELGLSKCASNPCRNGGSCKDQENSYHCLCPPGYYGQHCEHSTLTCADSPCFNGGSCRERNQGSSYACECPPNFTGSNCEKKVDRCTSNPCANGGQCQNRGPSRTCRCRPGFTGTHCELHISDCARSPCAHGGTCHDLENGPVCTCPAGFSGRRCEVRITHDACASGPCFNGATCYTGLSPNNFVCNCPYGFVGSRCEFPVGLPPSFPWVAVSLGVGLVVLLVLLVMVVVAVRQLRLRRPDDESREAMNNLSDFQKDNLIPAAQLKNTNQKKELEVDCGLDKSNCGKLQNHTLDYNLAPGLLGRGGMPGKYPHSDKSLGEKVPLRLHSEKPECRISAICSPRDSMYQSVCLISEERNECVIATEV
T1 sequence (Q9JI71 27-686): as above
recombinant mouse DLL4, C-terminally His-tagged extracellular domain (R&D Systems) (mouse), sequence (Q9JI71 27-532): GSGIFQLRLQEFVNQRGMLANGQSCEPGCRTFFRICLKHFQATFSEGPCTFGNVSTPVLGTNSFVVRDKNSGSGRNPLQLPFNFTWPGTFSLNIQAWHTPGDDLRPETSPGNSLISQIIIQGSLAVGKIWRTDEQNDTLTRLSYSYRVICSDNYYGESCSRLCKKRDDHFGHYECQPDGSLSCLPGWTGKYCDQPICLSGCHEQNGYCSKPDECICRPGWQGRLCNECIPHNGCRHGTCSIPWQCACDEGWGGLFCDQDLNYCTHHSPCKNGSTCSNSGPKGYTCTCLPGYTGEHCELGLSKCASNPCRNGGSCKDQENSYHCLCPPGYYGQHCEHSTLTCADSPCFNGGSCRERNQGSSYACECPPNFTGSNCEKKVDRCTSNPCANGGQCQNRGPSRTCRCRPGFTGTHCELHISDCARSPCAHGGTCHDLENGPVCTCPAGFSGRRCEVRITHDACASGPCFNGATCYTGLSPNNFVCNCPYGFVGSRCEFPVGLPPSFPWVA
cynomolgus DLL4 on overexpressing cells (cynomolgus (SEQ ID NO: 418 is the rhesus entry, stated 100% identical)), sequence (Q9NR61 other isoform, or with tags, fused parts or gaps limits assumed): as the sequence (Q9NR61 27-685 limits assumed) above, with I12V, T52S, N359S, L413R, N434S counted along it

B1: DLLBII101G08 (VHH)
VHH: EVQLVESGGGLVQAGGSLRLSCAASGRTFSSYAMAWFRQAPGKEREFVAAIRWSGGTAYYADSVQGRFTISRDNAKNTVYLQMNSLKPEDTAVYYCANRAADTRLGPYEYDYWGQGTQVTVSS
notes: also called DLLBII101G8; 101G8; not shown: C-terminal c-myc tag and His6 tag
- FMAT mDLL4 % inhibition [1]: 92%
- EC50 (read off the curve) [2]: 37 to 40 nM
- FMAT hDLL4 % inhibition [3]: 91%

B3: 83G04 (VHH)
VHH: EVQLVESGGGLVKPGGSLRLSCAASGRTLYIMGWYRQAPGKEREFVAGISRYGDITYAADSVKGRFTISRDSVKNTVYLRMNSLKPDDTAVYYCAANGGYCSGYGCYEDSGQYDYWGQGTQVTVSS
notes: also called DLLBII83G04
- IC50 (read off the curve) [24]: ~40 nM
- binding result [25]: binds

Next, values leading:

- EC50 [4]: 2.1 nM
- EC50 [5]: 3 nM
- EC50 (read off the curve) [5]: 800 pM
- IC50 [6]: 5.4 nM
- EC50 [7]: 2.5 nM
- IC50 [8]: 1.5 nM and 1.2 nM
- IC50 [9]: 1.5 nM and 1.2 nM
- Kd [10]: 1.5 nM
- koff [10]: 0.00034 s⁻¹
- kon [10]: 230000 M⁻¹ s⁻¹
- Kd [11]: 1.5 nM
- koff [11]: 0.00034 s⁻¹
- kon [11]: 230000 M⁻¹ s⁻¹
- IC50, DLL4/Notch1 reporter assay [12]: 133 nM
- IC50 (nM) (experiment 1), DLL4 proliferation assay (HUVEC) [13]: 4.9 nM
- IC50 (nM) (experiment 2), DLL4 proliferation assay (HUVEC) [13]: 5.6 nM
- Kd [14]: 1.5 nM
- IC50 [15]: 0.3 nM
- IC50 [16]: 0.7 nM
- IC50 [17]: 3 nM and 1.6 nM
- IC50 [18]: 3 nM and 1.6 nM
- IC50 [19]: 2.3 nM
- EC50 [20]: 5.6 nM
- EC50 [21]: 3 nM
- EC50 (read off the curve) [21]: 900 pM
- IC50 [22]: 5.5 nM and 3.4 nM
- IC50 [23]: 5.5 nM and 3.4 nM
B2: anti-DLL4 Fab fragment (of the Genentech anti-DLL4 mAb of US 2008/0014196) (Fab)
heavy: EVQLVESGGGLVQPGGSLRLSCAASGFTFTDNWISWVRQAPGKGLEWVGYISPNSGFTYYADSVKGRFTISADTSKNTAYLQMNSLRAEDTAVYYCARDNFGGYFDYWGQGTLVTVSS
light: DIQMTQSPSSLSASVGDRVTITCRASQDVSTAVAWYQQKPGKAPKLLIYSASFLYSGVPSRFSGSGSGTDFTLTISSLQPEDFATTYYCQQSYTGTVTFGQGTKVEIK

- binding result [24]: binds
- binding result [25]: binds
B4: 78B03 (VHH)
VHH: EVQLVESGGGLVQAGGSLRLSCAASGRTFSNYIMGWFRQAPGKEREFVAGISRYGDYTAYADSVKGRFTISRDNVKNTVYLRMNSLKPDDTAVYYCAANEGYCSGYGCYEDSGQYDYWGQGTQVTVSS
notes: also called DLLBII78B03

From US20110195494A1 (Boehringer Ingelheim, published 2011)
